# Reference: paper PMC10502012, “Molecular basis of TASL recruitment by the peptide/histidine transporter 1, PHT1” (Nature Communications, 2023)
# B1: sybody 27 (VHH)
# VHH: QVQLVESGGGSVQAGGSLRLSCAASGDIETIWYLGWFRQAPGKEREGVAALSTVTGSTYYADSVKGRFTVSLDNAKNTVYLQMNSLKPEDTALYYCAAAYTGWMAPLWQWVYSYWGQGTQVTVSA
# notes: synthetic nanobody selected from the sybody libraries; Expressed from the pSBinit plasmid; also called Sb27; Sb27a; source: E. coli MC1061 F-, periplasm, purified (Ni-NTA, gel filtration)
# B2: 146 (VHH)
# VHH: QVQLVESGGGLVQAGGSLRLSCAASGFPVDTTNMHWYRQAPGKEREWVAAIHSSGTYTFYADSVKGRFTISRDNAKNTVYLQMNSLKPEDTAVYYCNVKDKGAHLWWYDYWGQGTQVTVSA
# B3: 143 (VHH)
# VHH: QVQLVESGGGLVQAGGSLRLSCAASGFPVYSAVMYWYRQAPGKEREWVASIGSTGQHTYYADSVKGRFTISRDNAKNTVYLQMNSLKPEDTAVYYCNVKDVGEYMYWYDYWGQGTQVTVSA
# B4: 134 (VHH)
# VHH: QVQLVESGGGLVQAGGSLRLSCAASGFPVYQTYMYWYRQAPGKEREWVAAINSTGYFTRYADSVKGRFTISRDNAKNTVYLQMNSLKPEDTAVYYCNVKDLGWWSEQYDYWGQGTQVTVSA
# B5: 140 (VHH)
# VHH: QVQLVESGGGLVQAGGSLRLSCAASGFPVWATYMYWYRQAPGKEREWVAAIGSTGWFTVYADSVKGRFTISRDNAKNTVYLQMNSLKPEDTAVYYCNVKDYGWFEYRYDYWGQGTQVTVSA
# B6: 104 (VHH)
# VHH: QVQLVESGGGLVQAGGSLRLSCAASGFPVWNSWMRWYRQAPGKEREWVAAINSYGDHTEYADSVKGRFTISRDNAKNTVYLQMNSLKPEDTAVYYCNVKDYGEWWNNYDYWGQGTQVTVSA
# B7: 155 (VHH)
# VHH: QVQLVESGGGLVQAGGSLRLSCAAGGFPVKTSWMRWYRQAPGKEREWVAAINSTGDWTEYADSVKGRFTISRDNAKNTVYLQMNSLKPEDTAVYYCNVKDYGVQTYYYDYWGQGTQVTVSA
# B8: 105 (VHH)
# VHH: QVQLVESGGGLVQAGGSLRLSCAASGFPVYIKWMRWYRQAPGKEREWVAAISSNGEYTEYADSVKGRFTISRDNAKNTVYLQMNSLKPEDTAVYYCNVKDYGHTQWRYDYWGQGTQVTVSA
# B9: 109 (VHH)
# VHH: QVQLVESGGGLVQAGGSLRLSCAASGFPVGHKWMRWYRQAPGKEREWVAAINSHGEFTEYADSVKGRFTISRDNAKNTVYLQMNSLKPEDTAVYYCNVKDYGWTAWAYDYWGQGTQVTVSA
# B10: 121 (VHH)
# VHH: QVQLVESGGGLVQAGGSLRLSCAASGFPVEQSWMRWYRQAPGKEREWVAAINSWGEYTEYADSVKGRFTISRDNAKNTVYLQMNSLKPEDTAVYYCNVKDQGYEHQRYDYWGQGTQVTVSA
# B11: 139 (VHH)
# VHH: QVQLVESGGGSVQAGGSLRLSCAASGHIRWIKYLGWFRQAPGKEREGVAALYTYEGQTYYADSVKGRFTVSLDNAKNTVYLQMNSLKPEDTALYYCAAAYFGAFYPLSYDAYYYWGQGTQVTVSA
# B12: 116 (VHH)
# VHH: QVQLVESGGGPVQAGGSLRLSCAASGFPVNTRTMHWYRQAPGKEREWVAAIYSSGQNTFYADSVKGRFTISRDNAKNTVYLQMNSLKPEDTAVYYCNVKDWGNIWEYDYWGQGTQVTVSA
# B13: 111 (VHH)
# VHH: QVQLVESGGGLVQAGGSLRLSCAASGFPVYSSWMRWYRQAPGKEREWVAAINSHGDYTEYADSVKGRFTISRDNAKNTVYLQMNSLKPEDTAVYSCNVKDHGYYMKHYDYWGQGTQVTVSA
# Molecular target: T1, chicken PHT1 L12A/L13A (purified, deglycosylated, cryo-EM sample) (Gallus gallus (chicken), UniProt A0A8V0ZFZ8;A0A8V0Z8V0, point mutant)
# T1 construct: chicken PHT1 (SLC15A4), full length, 581 residues, with L12A and L13A; Residues 19-569 modelled in the map; also called plasma membrane mutant of PHT1; source: Expi293F GnT1-, transiently transfected, Strep-Tactin purified, treated with EndoH, gel filtration
# Assay: thermal shift (nanoDSF); PHT1 alone against PHT1-Sb27 at 0.4 mg/mL in 50 mM HEPES pH 7.5, 100 mM NaCl, 0.02% DDM/0.004% CHS
# Conditions: both partners purified
row,Binder,increase of the melting temperature of PHT1 [degrees]
1,B1,6

# Molecular target: chicken PHT1 (purified, wild type) (chicken)
# Assay: not given
# Conditions: not given
# Sequence of chicken PHT1 (purified, wild type) (chicken) (chain, as listed by the source): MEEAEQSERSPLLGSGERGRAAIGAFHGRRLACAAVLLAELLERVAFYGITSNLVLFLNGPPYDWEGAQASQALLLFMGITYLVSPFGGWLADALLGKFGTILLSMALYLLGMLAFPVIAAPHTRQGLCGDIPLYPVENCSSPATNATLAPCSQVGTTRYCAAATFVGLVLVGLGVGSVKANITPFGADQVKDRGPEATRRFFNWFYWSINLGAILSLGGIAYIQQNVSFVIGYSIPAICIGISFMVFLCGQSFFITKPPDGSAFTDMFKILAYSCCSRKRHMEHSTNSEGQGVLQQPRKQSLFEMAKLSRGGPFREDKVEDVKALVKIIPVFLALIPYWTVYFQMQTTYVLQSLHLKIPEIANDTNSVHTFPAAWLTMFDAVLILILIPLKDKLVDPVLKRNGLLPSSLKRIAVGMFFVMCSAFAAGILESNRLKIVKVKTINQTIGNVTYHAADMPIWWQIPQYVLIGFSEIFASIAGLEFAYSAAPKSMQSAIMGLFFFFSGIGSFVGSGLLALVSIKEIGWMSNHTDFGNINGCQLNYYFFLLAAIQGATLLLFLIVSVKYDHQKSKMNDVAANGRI
row,Binder,binding result
1,B2,binds
2,B3,binds
3,B4,binds
4,B5,binds
5,B6,binds
6,B7,binds
7,B8,binds
8,B9,binds
9,B10,binds
10,B11,binds
11,B12,binds
12,B13,binds

# Molecular target: T1, chicken PHT1 L12A/L13A (purified, …)
# Assay: cryo-EM structure; PHT1 L12A/L13A with two-fold molar excess of Sb27, EndoH, gel filtration; 10 mM MOPS pH 7.0, 100 mM NaCl, 0.01% DDM/0.002% CHS
# Conditions: both partners purified
row,Binder,stoichiometry N
1,B1,2
